According to paper PMC7074700:

Target: Helicobacter pylori CbpA, wild type, carboxyl-terminal His-tagged (H. pylori (strain G27))
Assay: cross-linking; 5 uM purified protein with 0, 0.0025, 0.005 and 0.01% glutaraldehyde in 1x binding buffer (10 mM Tris-HCl pH 8.0, 50 mM NaCl, 10 mM KCl, 5 mM MgCl2, 0.1 mM DTT, 0.01% NP40), 1 hour at 25 °C; SDS-PAGE, Coomassie staining

“Helicobacter pylori CbpA, wild type, carboxyl-terminal His-tagged (natural protein)” was tested, and the stoichiometry N was 2.
